Laboratory results reported in patent US6136558A, “Heregulin variants” (Genentech, Inc., priority 1998, dated 2000).
Where a chain is given by its changes, count along the chain named. Names may count otherwise.

What was measured:
[1] = target: ErbB-3 receptor-Ig fusion (human) (UniProt P21860); assay: phage ELISA, soluble ErbB-3-Ig as competitor
[2] = target: ErbB-4 receptor-Ig fusion (human) (UniProt Q15303); assay: phage ELISA, soluble ErbB-4-Ig as competitor
[3] = target: ErbB-3 receptor-Ig fusion (human) (UniProt P21860); assay: phage ELISA, ratio to wild-type HRG8 phage
[4] = target: ErbB-4 receptor-Ig fusion (human) (UniProt Q15303); assay: displacement of 125I-HRG-β1 177-244 from ErbB-4-Ig
[5] = target: ErbB-3 receptor-Ig fusion (human) (UniProt P21860); assay: displacement of 125I-HRG-β1 177-244 from ErbB-3-Ig

HRG-β1 177-244 K200A on phage (ligand)
EC50 [1]: 20 nM
EC50 [2]: 25 nM

HRG-β1 177-244 S177A on phage (ligand)
EC50 [1]: 67 nM
EC50 [2]: 83 nM

HRG-β1 177-244 N192A on phage (ligand)
EC50 [1]: > 1000 nM
EC50 [2]: 188 nM

HRG-β1 177-244 P205A on phage (ligand)
EC50 [1]: 22 nM
EC50 [2]: 8 nM

HRG-β1 177-244 F216A on phage (ligand)
EC50 [1]: 500 nM
EC50 [2]: > 1000 nM

HRG-β1 177-244 R220A on phage (ligand)
EC50 [1]: > 1000 nM
EC50 [2]: > 1000 nM

HRG-β1 177-244 R207A on phage (ligand)
EC50 [1]: > 1000 nM
EC50 [2]: 30 nM

HRG-β1 177-244 E195A on phage (ligand)
EC50 [1]: > 1000 nM
EC50 [2]: 24 nM

HRG-β1 177-244 F229A on phage (ligand)
EC50 [1]: 6 nM
EC50 [2]: > 1000 nM

HRG-β1 177-244 G194A on phage (ligand)
EC50 [1]: 500 nM
EC50 [2]: 65 nM

HRG-β1 177-244 Y224A on phage (ligand)
EC50 [1]: 865 nM
EC50 [2]: 51 nM

HRG-β1 177-244 F189A on phage (ligand)
EC50 [1]: 892 nM
EC50 [2]: 106 nM

HRG-β1 177-244 L179A on phage (ligand)
EC50 [1]: 1000 nM
EC50 [2]: 56 nM

HRG-β1 177-244 K211A on phage (ligand)
EC50 [1]: > 1000 nM
EC50 [2]: 59 nM

HRG-β1 177-244 G193A on phage (ligand)
EC50 [1]: > 1000 nM
EC50 [2]: 23 nM

B1: A1 (phage) (ligand)
chain: WRLVPCAEKEKTFCVNGGECFMVKDLSNPSRYLCKCPNEFTGDRCQNYVMAS
EC50(wt)/EC50(mut) [3]: 0.55

B2: I1 (phage) (ligand)
chain: B1 chain with W1S, R2H, P5K, N47W, M50I
EC50(wt)/EC50(mut) [3]: 13

B3: D10 (phage) (ligand)
chain: B1 chain with W1S, R2H, P5K, F21Y, D25T
EC50(wt)/EC50(mut) [3]: 2.1

B4: H5 (phage) (ligand)
chain: B1 chain with W1S, R2H, P5K, D43E
EC50(wt)/EC50(mut) [3]: 1.5

B5: A4 (phage) (ligand)
chain: B1 chain with R2S, P5K
EC50(wt)/EC50(mut) [3]: < 0.3

B6: A2 (phage) (ligand)
chain: B1 chain with R2S, V4Q
EC50(wt)/EC50(mut) [3]: 0.87

B7: B5 (phage) (ligand)
chain: SHLVKCGWDREGFCVNGGECFMVKDLSNPSRYLCKCPNEFTGDRCQNYVIAS
EC50(wt)/EC50(mut) [3]: 26

B8: HRG56 (phage) (ligand)
chain: B7 chain with W8E, D9E
EC50(wt)/EC50(mut) [3]: 31

B9: B10 (phage) (ligand)
chain: B7 chain with G7D, W8K, D9S
EC50(wt)/EC50(mut) [3]: 9.3

B10: HRG37 (phage) (ligand)
chain: B7 chain with S1W, H2E, K5P
EC50(wt)/EC50(mut) [3]: 13

B11: HRG60 (phage) (ligand)
chain: B7 chain with W8E, D9E, F21Y, M22R, D25T
EC50(wt)/EC50(mut) [3]: 63

B12: HRG53 (phage) (ligand)
chain: B7 chain with W8E, D9E, F21Y, M22R, D25T, I50M
EC50(wt)/EC50(mut) [3]: 26

B13: HRG57 (phage) (ligand)
chain: SHLVKCAEKEKTFCVNGGECYRVKTYGYLMCKCPNEFTGDRCQNYVMAS
EC50(wt)/EC50(mut) [3]: 24

B14: HRG71 (phage) (ligand)
chain: B13 chain with N44H, M47I
EC50(wt)/EC50(mut) [3]: 79

B15: D1 (phage) (ligand)
chain: SHLVKCAEKEKTFCVNGGECYKVRILSNPSRYLCKCPNEFTGDRCQNYVIAS
EC50(wt)/EC50(mut) [3]: 11

B16: HRG59 (phage) (ligand)
chain: B15 chain with K22R, R24K, I25T
EC50(wt)/EC50(mut) [3]: 26

B17: recombinantly produced HRG-β1 177-244 (ligand)
chain: SHLVKCAEKEKTFCVNGGECFMVKDLSNPSRYLCKCPNEFTGDRCQNYVMASFYKHLGIEFMEAEELY
EC50 [4]: 14.8 nM
EC50 [5]: 9 nM

B18: Trx-HRG-β1 146-244 S177A fusion (ligand)
chain: DDDDKAYVSSESPIRISVSTEGANTSSSTSTSTTGTAHLVKCAEKEKTFCVNGGECFMVKDLSNPSRYLCKCPNEFTGDRCQNYVMASFYKHLGIEFMEAEELY
EC50 [4]: 54.6 nM
EC50 [5]: 129 nM

B19: Trx-HRG-β1 146-244 N192A fusion (ligand)
chain: B18 chain with A37S, N52A
EC50 [4]: 696 nM
EC50 [5]: 1640 nM

B20: Trx-HRG-β1 146-244 T217A fusion (ligand)
chain: B18 chain with A37S, T77A
EC50 [4]: 32.7 nM
EC50 [5]: 145 nM

B21: Trx-HRG-β1 146-244 V199A fusion (ligand)
chain: B18 chain with A37S, V59A
EC50 [4]: 246 nM

B22: Trx-HRG-β1 146-244 G194A fusion (ligand)
chain: B18 chain with A37S, G54A
EC50 [4]: 275 nM
EC50 [5]: 1210 nM

B23: Trx-HRG-β1 146-244 H178A fusion (ligand)
chain: B18 chain with A37S, H38A
EC50 [4]: 138 nM
EC50 [5]: 476 nM

B24: Trx-HRG-β1 146-244 P205A fusion (ligand)
chain: B18 chain with A37S, P65A
EC50 [4]: 34.2 nM
EC50 [5]: 39.5 nM

B25: Trx-HRG-β1 146-244 Y224A fusion (ligand)
chain: B18 chain with A37S, Y84A
EC50 [4]: 24.5 nM
EC50 [5]: 339 nM

B26: Trx-HRG-β1 146-244 L179A fusion (ligand)
chain: B18 chain with A37S, L39A
EC50 [4]: 51.7 nM
EC50 [5]: 394 nM

B27: Trx-HRG-β1 146-244 E215A fusion (ligand)
chain: B18 chain with A37S, E75A
EC50 [4]: 104 nM
EC50 [5]: 156 nM

B28: Trx-HRG-β1 146-244 R207A fusion (ligand)
chain: B18 chain with A37S, R67A
EC50 [4]: 24.3 nM
EC50 [5]: 245 nM

B29: Trx-HRG-β1 146-244 F216A fusion (ligand)
chain: B18 chain with A37S, F76A
EC50 [4]: 173 nM
EC50 [5]: 2550 nM

B30: Trx-HRG-β1 146-244 E195A fusion (ligand)
chain: B18 chain with A37S, E55A
EC50 [4]: 13.2 nM
EC50 [5]: 42 nM

B31: Trx-HRG-β1 146-244 F229A fusion (ligand)
chain: B18 chain with A37S, F89A
EC50 [4]: 89.9 nM
EC50 [5]: 177 nM

B32: Trx-HRG-β1 146-244 K211A fusion (ligand)
chain: B18 chain with A37S, K71A
EC50 [4]: 124 nM
EC50 [5]: 248 nM

B33: Trx-HRG-β1 146-244 F189A fusion (ligand)
chain: B18 chain with A37S, F49A
EC50 [4]: 565 nM
EC50 [5]: 975 nM

B34: Trx-HRG-β1 146-244 G193A fusion (ligand)
chain: B18 chain with A37S, G53A
EC50 [4]: 76.3 nM
EC50 [5]: 26.9 nM

B35: Trx-HRG-β1 146-244 G218A fusion (ligand)
chain: B18 chain with A37S, G78A
EC50 [4]: 608 nM
EC50 [5]: 668 nM

B36: Trx-HRG-β1 146-244 K200A fusion (ligand)
chain: B18 chain with A37S, K60A
EC50 [4]: 16.9 nM
EC50 [5]: 45.4 nM

B37: HRG54 (phage) (ligand)
chain: SHLVKCGEEREGFCVNGGECFMVKDYGYLMCKCPNEFTGDRCQNYVMAS
EC50(wt)/EC50(mut) [3]: 12

B38: HRG61 (phage) (ligand)
chain: B37 chain with M47I
EC50(wt)/EC50(mut) [3]: 29

B39: HRG55 (phage) (ligand)
chain: B37 chain with F21Y, M22R, D25T
EC50(wt)/EC50(mut) [3]: 13

B40: HRG62 (phage) (ligand)
chain: B37 chain with F21Y, M22R, D25T, M47I
EC50(wt)/EC50(mut) [3]: 32

B41: HRG63 (phage) (ligand)
chain: SHLVKCAEKEKTFCVNGGECFMVKDPSRYLCKCPNEFTGDRCQNYVMAS
EC50(wt)/EC50(mut) [3]: 1.1

B42: HRG48 (phage) (ligand)
chain: B13 chain with Y21F, R22M, T25D, M47I
EC50(wt)/EC50(mut) [3]: 49

B43: E3 (phage) (ligand)
chain: B41 chain with P26Y, S27R, R28Y, Y29R, L30M, M47I
EC50(wt)/EC50(mut) [3]: 16
